Results taken from patent US11419921B2, “Methods of treating neurological disorders” (EnClear Therapies, Inc., priority 2018, dated 2022).

Columns and labels:
(GR)10 [1] = test: (GR)10 digestion with immobilized proteases (NHS-activated agarose resin) in PBS; type: biochemical; settings: normalized
Procedure: (§1) Protease solutions were prepared at 2 mg/mL in sterile PBS with calcium, magnesium and 200 μL ([…]) were applied to 100 μL of pre-washed NHS-activated agarose resin in 0.8 mL centrifuge columns. Reactions were left 1.5 hour at room temperature with end-to-end mixing, after which resins were washed with 12 resin volumes of PBS. Unreacted sites were blocked with 500 μL of 1M ethanolamine for 15 minutes at room temperature and resins were further washed with 24 resin volumes. Resins were stored at 4 degrees in 500 μL of PBS containing 0.05% sodium azide as preservative.
110 μL of 50 μM (GR)10 dipeptide repeats prepared in PBS were added to each immobilized protease and incubated 5 minutes at room temperature with end-to-end mixing. Columns were spun down 1 minute at 1,000 Xg to recover digested GR dipeptides. Columns were washed with 110 μL of PBS to increase (GR)10 recovery. This procedure was repeated with 60 minutes digestion time. 100 μL of each samples were transferred to a new tube and 5 μL of 10% TFA followed by 300 μL of Dilution Solution were added. The reaction mixtures were analyzed by LC/MS to determine the concentration of GR repeats of different lengths.

(GR)10 [2] = test: (GR)10 digestion with immobilized proteases in human cerebrospinal fluid (CSF); type: biochemical; settings: immobilized enzyme
Procedure: as §1
200 μM of (GR)10 were diluted in human cerebrospinal fluid (CSF) and 400 μL were applied to each immobilized proteases. The reaction was incubated 5 minutes at room temperature with end-to-end mixing. Columns were spun down 1 minute at 1,000 Xg to recover digested GR dipeptides. Columns were washed with 12 resin volumes of PBS. The procedure was repeated with 60 minutes digestion time. 100 μL of each samples were transferred to a clean tube, flash-frozen and subsequently used for LC/MS quantification of GR repeats of different lengths. The remaining 300 μL of each samples were flash-frozen and used to assess neuron toxicity.
(GR)10 was digested with exemplary immobilized enzymes as described above in the subsection titled “(GR)10 digestion with immobilized proteases in CSF” of Example 3. Clostripain experiments were conducted with and without DTT activation (no DTT during digestion). The results obtained after 5 and 60 minutes of reaction time are presented in Table 25 and shown in FIG. 5 (commercial and in-house immobilized trypsin), FIG. 6 (immobilized elastase, FIG. 7A (immobilized clostripain without DTT) and FIG. 7 (immobilized clostripain with 2.5 mM DTT).

[3] = resin wash from 60 min reaction

B1: Clostripain: sulfhydryl protease cleaving at the C-terminus of arginine residues; in Table 23 also immobilized on agarose resin (protein)
chain: NKNQKVTIMYYCDADNNLEGSLLNDIEEMKTGYKDSPNLNLIALVDRSPRYSSDEKVLGEDFSDTRLYKIEHNKANRLDGKNEFPEISTTSKYEANMGDPEVLKKFIDYCKSNYEADKYVLIMANHGGGAREKSNPRLNRAICWDDSNLDKNGEADCLYMGEISDHLTEKQSVDLLAFDACLMGTAEVAYQYRPGNGGFSADTLVASSPVVWGPGFKYDKIFDRIKAGGGTNNEDDLTLGGKEQNFDPATITNEQLGALFVEEQRDSTHANGRYDQHLSFYDLKKAESVKRAIDNLAVNLSNENKKSEIEKLRGSGIHTDLMHYFDEYSEGEWVEYPYFDVYDLCEKINKSENFSSKTKDLASNAMNKLNEMIVYSFGDPSNNFKEGKNGLSIFLPNGDKKYSTYYTSTKIPHWTMQSWYNSIDTVKYGLNPYGKLSWCKDGQDPEINKVGNWFELLDSWFDKTNDVTGGVNHYQW
(GR)1 ((GR)10 [1]; Immobilized - 5 min reaction): 296.5 µM
(GR)2 ((GR)10 [1]; Immobilized - 5 min reaction): 0.0 µM
(GR)3 ((GR)10 [1]; Immobilized - 5 min reaction): 0.0 µM
(GR)4 ((GR)10 [1]; Immobilized - 5 min reaction): 0.0 µM
(GR)5 ((GR)10 [1]; Immobilized - 5 min reaction): 0.0 µM
(GR)6 ((GR)10 [1]; Immobilized - 5 min reaction): 0.0 µM
(GR)8 ((GR)10 [1]; Immobilized - 5 min reaction): 0.0 µM
(GR)10 ((GR)10 [1]; Immobilized - 5 min reaction): 0.0 µM
(GR)1 ((GR)10 [1]; immobilized - 60 min reaction): 305.9 µM
(GR)2 ((GR)10 [1]; immobilized - 60 min reaction): 0.0 µM
(GR)3 ((GR)10 [1]; immobilized - 60 min reaction): 0.0 µM
(GR)4 ((GR)10 [1]; immobilized - 60 min reaction): 0.0 µM
(GR)5 ((GR)10 [1]; immobilized - 60 min reaction): 0.0 µM
(GR)6 ((GR)10 [1]; immobilized - 60 min reaction): 0.0 µM
(GR)8 ((GR)10 [1]; immobilized - 60 min reaction): 0.0 µM
(GR)10 ((GR)10 [1]; immobilized - 60 min reaction): 0.0 µM
(GR)1 ((GR)10 [1]; resin wash from 5 min reaction): 140.2 µM
(GR)2 ((GR)10 [1]; resin wash from 5 min reaction): 0.0 µM
(GR)3 ((GR)10 [1]; resin wash from 5 min reaction): 0.0 µM
(GR)4 ((GR)10 [1]; resin wash from 5 min reaction): 0.0 µM
(GR)5 ((GR)10 [1]; resin wash from 5 min reaction): 0.0 µM
(GR)6 ((GR)10 [1]; resin wash from 5 min reaction): 0.0 µM
(GR)8 ((GR)10 [1]; resin wash from 5 min reaction): 0.0 µM
(GR)10 ((GR)10 [1]; resin wash from 5 min reaction): 0.0 µM
(GR)1 ((GR)10 [1]; [3]): 155.8 µM
(GR)2 ((GR)10 [1]; [3]): 0.0 µM
(GR)3 ((GR)10 [1]; [3]): 0.0 µM
(GR)4 ((GR)10 [1]; [3]): 0.0 µM
(GR)5 ((GR)10 [1]; [3]): 0.0 µM
(GR)6 ((GR)10 [1]; [3]): 0.0 µM
(GR)8 ((GR)10 [1]; [3]): 0.0 µM
(GR)10 ((GR)10 [1]; [3]): 0.0 µM
(GR)1 (normalized uM) ((GR)10 [2]; 5 min reaction): 11.2 µM
(GR)2 (normalized uM) ((GR)10 [2]; 5 min reaction): 10.0 µM
(GR)3 (normalized uM) ((GR)10 [2]; 5 min reaction): 0.0 µM
(GR)4 (normalized uM) ((GR)10 [2]; 5 min reaction): 0.0 µM
(GR)5 (normalized uM) ((GR)10 [2]; 5 min reaction): 8.5 µM
(GR)6 (normalized uM) ((GR)10 [2]; 5 min reaction): 0.0 µM
(GR)8 (normalized uM) ((GR)10 [2]; 5 min reaction): 0.0 µM
(GR)10 (normalized uM) ((GR)10 [2]; 5 min reaction): 395 µM
(GR)1 (normalized uM) ((GR)10 [2]; 60 min reaction): 106.2 µM
(GR)2 (normalized uM) ((GR)10 [2]; 60 min reaction): 99.2 µM
(GR)3 (normalized uM) ((GR)10 [2]; 60 min reaction): 72.3 µM
(GR)4 (normalized uM) ((GR)10 [2]; 60 min reaction): 84.7 µM
(GR)5 (normalized uM) ((GR)10 [2]; 60 min reaction): 85.5 µM
(GR)6 (normalized uM) ((GR)10 [2]; 60 min reaction): 87 µM
(GR)8 (normalized uM) ((GR)10 [2]; 60 min reaction): 58.4 µM
(GR)10 (normalized uM) ((GR)10 [2]; 60 min reaction): 0 µM

B2: Trypsin: protease cleaving at the carboxyl side of lysine or arginine; in Table 21 also immobilized in-house on NHS-activated agarose resin (protein, UniProt P00760 24-246, looked up)
Serine protease 1: IVGGYTCGANTVPYQVSLNSGYHFCGGSLINSQWVVSAAHCYKSGIQVRLGEDNINVVEGNEQFISASKSIVHPSYNSNTLNNDIMLIKLKSAASLNSRVASISLPTSCASAGTQCLISGWGNTKSSGTSYPDVLKCLKAPILSDSSCKSAYPGQITSNMFCAGYLEGGKDSCQGDSGGPVVCSGKLQGIVSWGSGCAQKNKPGVYTKVCNYVSWIKQTIASN
(GR)1 ((GR)10 [1]; Immobilized - 5 min reaction): 308.8 µM
(GR)2 ((GR)10 [1]; Immobilized - 5 min reaction): 0.0 µM
(GR)3 ((GR)10 [1]; Immobilized - 5 min reaction): 0.0 µM
(GR)4 ((GR)10 [1]; Immobilized - 5 min reaction): 0.0 µM
(GR)5 ((GR)10 [1]; Immobilized - 5 min reaction): 0.0 µM
(GR)6 ((GR)10 [1]; Immobilized - 5 min reaction): 0.0 µM
(GR)8 ((GR)10 [1]; Immobilized - 5 min reaction): 0.0 µM
(GR)10 ((GR)10 [1]; Immobilized - 5 min reaction): 0.0 µM
(GR)1 ((GR)10 [1]; immobilized - 60 min reaction): 321.8 µM
(GR)2 ((GR)10 [1]; immobilized - 60 min reaction): 0.0 µM
(GR)3 ((GR)10 [1]; immobilized - 60 min reaction): 0.0 µM
(GR)4 ((GR)10 [1]; immobilized - 60 min reaction): 0.0 µM
(GR)5 ((GR)10 [1]; immobilized - 60 min reaction): 0.0 µM
(GR)6 ((GR)10 [1]; immobilized - 60 min reaction): 0.0 µM
(GR)8 ((GR)10 [1]; immobilized - 60 min reaction): 0.0 µM
(GR)10 ((GR)10 [1]; immobilized - 60 min reaction): 0.0 µM
(GR)1 ((GR)10 [1]; resin wash from 5 min reaction): 140.2 µM
(GR)2 ((GR)10 [1]; resin wash from 5 min reaction): 0.0 µM
(GR)3 ((GR)10 [1]; resin wash from 5 min reaction): 0.0 µM
(GR)4 ((GR)10 [1]; resin wash from 5 min reaction): 0.0 µM
(GR)5 ((GR)10 [1]; resin wash from 5 min reaction): 0.0 µM
(GR)6 ((GR)10 [1]; resin wash from 5 min reaction): 0.0 µM
(GR)8 ((GR)10 [1]; resin wash from 5 min reaction): 0.0 µM
(GR)10 ((GR)10 [1]; resin wash from 5 min reaction): 6.6 µM
(GR)1 ((GR)10 [1]; [3]): 144.6 µM
(GR)2 ((GR)10 [1]; [3]): 0.0 µM
(GR)3 ((GR)10 [1]; [3]): 0.0 µM
(GR)4 ((GR)10 [1]; [3]): 0.0 µM
(GR)5 ((GR)10 [1]; [3]): 0.0 µM
(GR)6 ((GR)10 [1]; [3]): 0.0 µM
(GR)8 ((GR)10 [1]; [3]): 0.0 µM
(GR)10 ((GR)10 [1]; [3]): 0.0 µM
(GR)1 (normalized uM) ((GR)10 [2]; 5 min reaction): 1153.4 µM
(GR)2 (normalized uM) ((GR)10 [2]; 5 min reaction): 9.0 µM
(GR)3 (normalized uM) ((GR)10 [2]; 5 min reaction): 0.0 µM
(GR)4 (normalized uM) ((GR)10 [2]; 5 min reaction): 0.0 µM
(GR)5 (normalized uM) ((GR)10 [2]; 5 min reaction): 0.0 µM
(GR)6 (normalized uM) ((GR)10 [2]; 5 min reaction): 0.0 µM
(GR)8 (normalized uM) ((GR)10 [2]; 5 min reaction): 0.0 µM
(GR)10 (normalized uM) ((GR)10 [2]; 5 min reaction): 0.0 µM
(GR)1 (normalized uM) ((GR)10 [2]; 60 min reaction): 1182.3 µM
(GR)2 (normalized uM) ((GR)10 [2]; 60 min reaction): 0.0 µM
(GR)3 (normalized uM) ((GR)10 [2]; 60 min reaction): 0.0 µM
(GR)4 (normalized uM) ((GR)10 [2]; 60 min reaction): 0.0 µM
(GR)5 (normalized uM) ((GR)10 [2]; 60 min reaction): 0.0 µM
(GR)6 (normalized uM) ((GR)10 [2]; 60 min reaction): 0.0 µM
(GR)8 (normalized uM) ((GR)10 [2]; 60 min reaction): 0.0 µM
(GR)10 (normalized uM) ((GR)10 [2]; 60 min reaction): 0.0 µM
